According to US20250084174A1 (AstraZeneca / MedImmune, published 2025):
Like-named read-outs stand apart in the source and are kept apart here.

What was measured:
cynomolgus CCR9 [1] = target: T1, cynomolgus CCR9 (cynomolgus, UniProt Q0H741 1-369); test: binding to HEK cells expressing cynomolgus CCR9, fluorescence counts (FL1 Counts) against Log M
T1 construct: Overexpressed on HEK cells, or endogenous on cynomolgus PBMC; also called cynomolgus CCR9A; Cyno HEK
T1 sequence: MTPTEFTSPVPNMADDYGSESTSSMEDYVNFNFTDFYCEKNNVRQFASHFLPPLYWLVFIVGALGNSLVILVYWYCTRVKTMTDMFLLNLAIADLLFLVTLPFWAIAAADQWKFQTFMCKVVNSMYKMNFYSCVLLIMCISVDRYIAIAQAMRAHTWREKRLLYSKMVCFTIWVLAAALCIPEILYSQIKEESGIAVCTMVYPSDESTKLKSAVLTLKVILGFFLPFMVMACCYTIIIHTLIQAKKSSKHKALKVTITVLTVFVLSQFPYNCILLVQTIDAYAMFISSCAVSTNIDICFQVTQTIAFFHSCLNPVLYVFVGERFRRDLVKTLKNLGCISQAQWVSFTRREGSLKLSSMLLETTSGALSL

CXCR2 = target: T2, CXCR2 (UniProt P25025 1-360, limits assumed); test: binding to cells expressing CXCR2, fluorescence counts (FL1 Counts) against Log M
T2 construct: whole, on cells; The cell line is not described
T2 sequence (looked up): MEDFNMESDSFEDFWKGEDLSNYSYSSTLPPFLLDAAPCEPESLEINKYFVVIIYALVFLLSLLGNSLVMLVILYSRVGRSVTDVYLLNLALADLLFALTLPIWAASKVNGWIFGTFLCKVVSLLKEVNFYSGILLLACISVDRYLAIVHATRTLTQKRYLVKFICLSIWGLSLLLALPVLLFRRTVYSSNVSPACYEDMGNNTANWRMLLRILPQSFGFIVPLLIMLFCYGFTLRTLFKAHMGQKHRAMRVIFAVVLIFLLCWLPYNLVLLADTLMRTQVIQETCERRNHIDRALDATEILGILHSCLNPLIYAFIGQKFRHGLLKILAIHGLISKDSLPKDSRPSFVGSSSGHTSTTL

CCR8 [2] = target: T3, CCR8 (UniProt P51685 1-355, limits assumed); test: binding to cells expressing CCR8, fluorescence counts (FL1 Counts) against Log M
T3 construct: whole, on cells; The cell line is not described

CXCR1 = target: T4, CXCR1 (UniProt P25024 1-350, limits assumed); test: binding to cells expressing CXCR1, fluorescence counts (FL1 Counts) against Log M
T4 construct: whole, on cells; The cell line is not described
T4 sequence (looked up): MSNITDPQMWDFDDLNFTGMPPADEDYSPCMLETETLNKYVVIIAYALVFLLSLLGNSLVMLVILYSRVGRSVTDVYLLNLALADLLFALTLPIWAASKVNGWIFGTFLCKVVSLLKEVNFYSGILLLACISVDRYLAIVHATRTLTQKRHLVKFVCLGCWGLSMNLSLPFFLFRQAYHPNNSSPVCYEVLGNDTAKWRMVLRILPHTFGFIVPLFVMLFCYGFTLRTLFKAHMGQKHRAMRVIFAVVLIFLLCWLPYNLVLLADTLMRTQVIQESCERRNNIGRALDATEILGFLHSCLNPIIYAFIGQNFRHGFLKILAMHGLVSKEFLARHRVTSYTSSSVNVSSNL

CCR5 [3] = target: T5, CCR5 (UniProt P51681 1-352, limits assumed); test: binding to cells expressing CCR5, fluorescence counts (FL1 Counts) against Log M
T5 construct: whole, on cells; The cell line is not described

mouse CCR9 [4] = target: T6, mouse CCR9 (mouse, UniProt Q9WUT7 1-369); test: binding to HEK cells overexpressing mouse CCR9, MFI against [Ab] ug/ml
T6 construct: whole, on cells; Overexpressed on HEK cells; also called mCCR9; Mouse HEK
T6 sequence (looked up): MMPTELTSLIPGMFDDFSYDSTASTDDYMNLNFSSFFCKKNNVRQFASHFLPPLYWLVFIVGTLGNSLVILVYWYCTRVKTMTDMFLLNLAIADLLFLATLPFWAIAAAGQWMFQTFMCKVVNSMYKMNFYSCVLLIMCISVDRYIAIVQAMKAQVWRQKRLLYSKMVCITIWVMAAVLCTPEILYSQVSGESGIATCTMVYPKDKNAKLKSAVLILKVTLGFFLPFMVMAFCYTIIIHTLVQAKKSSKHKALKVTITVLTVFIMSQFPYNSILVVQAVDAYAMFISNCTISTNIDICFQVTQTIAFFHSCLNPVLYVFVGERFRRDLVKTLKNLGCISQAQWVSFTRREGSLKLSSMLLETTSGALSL
Experimental: (§1) The antibody AB1020243 (hybridoma mIgG) was also tested for binding to different forms of CCR9. Briefly, test antibody was diluted to a concentration of 60 μg/mL in assay buffer containing Hanks Balanced Salt solution (Sigma HB264) plus 0.1% Bovine Serum Albumin (Sigma A9576). Antibody was titrated in duplicate using single fold titrations over 24 points on a 384 black clear bottomed, non-binding microplate (Corning® NBS™ 3655) so that the final volume of test antibody was 10 μL per well. […]
(§2) Transfected HEK CCR9 overexpressing cell lines or un-transfected parental control cells were suspended in assay buffer at a concentration of 1×10⁶ cells per ml, and 10 μL of cells were dispensed to the assay plate containing test antibody and secondary antibody using a Multidrop dispenser (Thermo Scientific). Assay plates were incubated overnight at 4° C. and were read on a mirrorball® (laser scanning fluorescence cytometer; TTP-Labtech) using excitation at 488 nm and emission using the FL4channel (667-685 nm). Data was plotted in GraphPad Prism version 8.0.0 for Windows (GraphPad Software, San Diego, California USA) and expressed as Log (mg/mL antibody) v's Fluorescence (FL4) counts.

human CCR9B [5] = target: T7, human CCR9B (human, UniProt P51686 13-369); test: binding to HEK cells overexpressing human CCR9B, MFI against [Ab] ug/ml; Parental HEK stays at about 0
T7 construct: Overexpressed on HEK cells; also called Hu B HEK; hCCR9 isoform B
T7 sequence: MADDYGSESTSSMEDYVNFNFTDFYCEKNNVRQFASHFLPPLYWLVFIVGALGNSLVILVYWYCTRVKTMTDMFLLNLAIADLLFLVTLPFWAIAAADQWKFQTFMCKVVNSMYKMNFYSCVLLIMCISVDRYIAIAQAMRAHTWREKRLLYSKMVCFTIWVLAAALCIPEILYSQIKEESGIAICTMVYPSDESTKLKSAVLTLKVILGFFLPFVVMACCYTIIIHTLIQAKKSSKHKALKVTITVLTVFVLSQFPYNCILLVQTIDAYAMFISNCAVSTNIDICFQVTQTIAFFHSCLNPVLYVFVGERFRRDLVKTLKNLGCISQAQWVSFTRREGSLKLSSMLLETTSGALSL
Experimental: as §1, §2

rat CCR9 [6] = target: T8, rat CCR9 (rat, UniProt Q8CH33 1-369); test: binding to HEK cells overexpressing rat CCR9, MFI against [Ab] ug/ml
T8 construct: Overexpressed on HEK cells; also called Rat HEK
T8 sequence: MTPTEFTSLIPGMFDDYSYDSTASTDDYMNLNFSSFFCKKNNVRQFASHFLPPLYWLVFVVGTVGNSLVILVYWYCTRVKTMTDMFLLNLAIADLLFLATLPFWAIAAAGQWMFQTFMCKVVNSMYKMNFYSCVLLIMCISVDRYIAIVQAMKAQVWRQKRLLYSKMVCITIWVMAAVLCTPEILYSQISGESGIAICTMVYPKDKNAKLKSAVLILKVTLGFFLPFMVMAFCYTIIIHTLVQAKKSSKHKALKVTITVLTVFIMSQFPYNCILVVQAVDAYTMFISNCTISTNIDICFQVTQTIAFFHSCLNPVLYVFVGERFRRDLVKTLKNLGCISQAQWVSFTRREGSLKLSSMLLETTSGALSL
Experimental: as §1, §2

human CCR9A [7] = target: T9, human CCR9A (human, UniProt P51686 1-369); test: binding to HEK cells overexpressing human CCR9A, MFI against [Ab] ug/ml; Parental HEK stays at about 0
T9 construct: Overexpressed on HEK cells; also called Hu A HEK; hCCR9 isoform A
T9 sequence: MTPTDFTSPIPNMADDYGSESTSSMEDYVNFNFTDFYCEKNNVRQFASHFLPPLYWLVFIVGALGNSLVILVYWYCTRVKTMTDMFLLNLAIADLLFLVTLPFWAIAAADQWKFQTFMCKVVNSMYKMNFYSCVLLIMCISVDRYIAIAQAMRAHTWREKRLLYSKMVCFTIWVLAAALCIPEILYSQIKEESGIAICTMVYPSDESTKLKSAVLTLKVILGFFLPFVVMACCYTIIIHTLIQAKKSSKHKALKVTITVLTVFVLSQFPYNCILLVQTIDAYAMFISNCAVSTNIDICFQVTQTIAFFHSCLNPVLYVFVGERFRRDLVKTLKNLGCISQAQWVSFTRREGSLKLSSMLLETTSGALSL
Experimental: as §1, §2

human CCR9A [8] = target: T9, human CCR9A; test: binding to cells expressing human CCR9A, fluorescence counts (FL1 Counts) against Log M
CCR8 [9] = target: T3, CCR8; test: binding to cells expressing CCR8, fluorescence counts (FL1 Counts) against Log M; remark: listed apart in the source
mouse CCR9 [10] = target: T6, mouse CCR9; test: cell binding by the methods of Example 4
rat CCR9 [11] = target: T8, rat CCR9; test: cell binding by the methods of Example 4
human CCR9B [12] = target: T7, human CCR9B; test: binding to cells expressing human CCR9B, fluorescence counts (FL1 Counts) against Log M
cynomolgus CCR9 [13] = target: T1, cynomolgus CCR9; test: cell-based or functional assay
CCR5 [14] = target: T5, CCR5; test: binding to cells expressing CCR5, fluorescence counts (FL1 Counts) against Log M; remark: listed apart in the source

T5 sequence (P51681 whole entry): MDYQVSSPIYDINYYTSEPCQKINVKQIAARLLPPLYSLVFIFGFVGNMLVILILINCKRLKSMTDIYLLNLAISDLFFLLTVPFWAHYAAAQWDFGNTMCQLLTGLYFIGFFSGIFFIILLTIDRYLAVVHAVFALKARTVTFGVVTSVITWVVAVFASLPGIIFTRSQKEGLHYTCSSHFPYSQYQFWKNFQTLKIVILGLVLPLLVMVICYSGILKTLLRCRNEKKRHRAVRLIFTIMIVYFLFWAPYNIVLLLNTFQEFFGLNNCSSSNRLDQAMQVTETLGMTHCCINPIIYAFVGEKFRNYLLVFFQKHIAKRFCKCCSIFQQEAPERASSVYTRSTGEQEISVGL
T3 sequence (P51685 whole entry): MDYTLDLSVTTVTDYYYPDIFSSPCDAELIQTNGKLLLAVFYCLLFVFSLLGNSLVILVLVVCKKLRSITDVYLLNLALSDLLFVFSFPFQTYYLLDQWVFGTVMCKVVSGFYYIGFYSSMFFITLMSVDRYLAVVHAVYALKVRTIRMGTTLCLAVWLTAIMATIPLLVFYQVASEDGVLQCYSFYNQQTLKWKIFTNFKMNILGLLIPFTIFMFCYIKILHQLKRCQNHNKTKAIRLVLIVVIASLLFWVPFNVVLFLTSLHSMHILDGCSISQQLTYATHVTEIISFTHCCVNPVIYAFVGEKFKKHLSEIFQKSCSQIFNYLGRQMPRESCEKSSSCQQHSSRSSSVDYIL

B1: AB1020243 afuc (chimeric parent antibody, afucosylated) (antibody, V domains shown)
VH: EVQLQQSGTVLARPGASVKMSCKASGYTFTSYWMHWVKQRPGQGLEWIGVIYPGNSDTRYNQKFKGKAKLTAVTSATTAYMELSSLTNEDSAVYYCTRDYYSNYVYYYAMDYWGQGTSVTVSS
VL: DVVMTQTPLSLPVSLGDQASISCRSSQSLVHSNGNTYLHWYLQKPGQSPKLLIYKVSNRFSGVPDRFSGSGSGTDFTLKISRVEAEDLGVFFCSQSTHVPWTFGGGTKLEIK
modifications: afucosylated form; in the LigandTracer assay DyLight 650 Maleimide on an engineered cysteine residue in the CH2 region
notes: Mouse variable domains; Called chimeric, with human IgG1 format stated for the LigandTracer assay; also called chimeric AB1020243; parent AB1020243
EC50 (read off the curve) (cynomolgus CCR9 [1]): ~0.6 nM
binding result (CXCR2): no binding (tested: Log M about -6.9 (about 1e-7 M))
binding result (CCR8 [2]): no binding (tested: Log M about -6.5 (about 3e-7 M))
binding result (CXCR1): no binding (tested: Log M about -6.9 (about 1e-7 M))
binding result (CCR5 [3]): no binding (tested: Log M about -6.5 (about 3e-7 M))

B2: AB1020243 (hybridoma mIgG) (antibody, V domains shown)
VH: EVQLQQSGTVLARPGASVKMSCKASGYTFTSYWMHWVKQRPGQGLEWIGVIYPGNSDTRYNQKFKGKAKLTAVTSATTAYMELSSLTNEDSAVYYCTRDYYSNYVYYYAMDYWGQGTSVTVSS
VL: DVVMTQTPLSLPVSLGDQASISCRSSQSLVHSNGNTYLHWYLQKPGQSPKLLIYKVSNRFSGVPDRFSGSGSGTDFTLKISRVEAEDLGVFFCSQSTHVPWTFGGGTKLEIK
notes: Mouse IgG from the hybridoma; also called clone ZY10O1-A02
binding result (mouse CCR9 [4]): no binding (tested: 10 ug/ml)
binding result (human CCR9B [5]): binds
binding result (rat CCR9 [6]): no binding (tested: 10 ug/ml)
binding result (human CCR9A [7]): binds

B3: AB243LO0326 (antibody, V domains shown)
VH: QVQLVQSGAEVKKPGASVKVSCKASGYTFTSYWMHWVRQAPGQGLEWIGVIYPGNSDTRYNQKFKGRVTITRDTSASTAYMELSSLRSEDTAVYYCTRDYYSNYVYYYAMDYWGQGTTVTVSS
VL: DIVMTQTPLSLPVTPGEPASISCRSSQSLVHPNRNTYLHWYLQKPGQSPQLLIYKVSNRFSGVPDRFSGSGSGTDFTLKISRVEAEDVGVYYCSQSTHVPWTFGQGTKLEIK
modifications: afucosylated form; in the LigandTracer assay DyLight 650 Maleimide on an engineered cysteine residue in the CH2 region
notes: Full chains are not tied to the tested lot
binding result (human CCR9A [8]): binds
binding result (CXCR2): no binding (tested: Log M about -6.9 (about 1e-7 M))
binding result (CCR8 [9]): no binding (tested: Log M about -6.9 (about 1e-7 M))
binding result (mouse CCR9 [10]): no binding
binding result (rat CCR9 [11]): no binding
binding result (CXCR1): no binding (tested: Log M about -6.9 (about 1e-7 M))
binding result (human CCR9B [12]): binds
EC50, killing of cynomolgus CD4+CCR9+ PBMC (cynomolgus CCR9 [13]): 0.03 nM
binding result (CCR5 [14]): no binding (tested: Log M about -6.9 (about 1e-7 M))

B4: AB243LO0331 (antibody, IgG1, V domains shown)
VH: QVQLVQSGAEVKKPGASVKVSCKASGYTFTSYWMHWVRQAPGQGLEWIGVIYPGNSDTRYNQKFKGRVTITRDTSASTAYMELSSLRSEDTAVYYCTRDYYSNYVYYYAMDYWGQGTTVTVSS
VL: DIVMTQTPLSLPVTPGEPASISCRSSQSLVHSNTNTYLHWYLQKPGQSPQLLIYKVSNRFSGVPDRFSGSGSGTDFTLKISRVEAEDVGVYYCSQSTHVPWTFGQGTKLEIK
modifications: afucosylated form
binding result (mouse CCR9 [10]): no binding
binding result (rat CCR9 [11]): no binding
